Literature values in paper PMC3526805.

Target: C3b C3b (Homo sapiens) (UniProt P01024)
UniProt P01024, sequence (P01024 566-670): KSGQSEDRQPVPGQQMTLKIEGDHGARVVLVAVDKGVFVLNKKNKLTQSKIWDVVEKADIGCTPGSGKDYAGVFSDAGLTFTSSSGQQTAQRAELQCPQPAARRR

- Kd: 10 µM
Substance: Factor H four regulatory domains (from UniProt P08603)
